Reference: patent publication US20060177894A1 (published 2006)

What was measured:
[1] = target: T1, rat lutropin receptor (LHR) (rat, UniProt P16235 27-700); assay: inhibition of 125I-hCG binding to CHO cells with rat LHR; from IC50; native β-subunit analog
T1 construct: whole, on cells; also called LH receptor

[2] = target: T1, rat lutropin receptor (LHR); assay: cell-based or functional assay
[3] = target: T1, rat lutropin receptor (LHR); assay: inhibition of 125I-hCG binding to CHO cells with rat LHR; from IC50; acid-stable hCGβ-S138C analog

T1 sequence (P16235 27-700): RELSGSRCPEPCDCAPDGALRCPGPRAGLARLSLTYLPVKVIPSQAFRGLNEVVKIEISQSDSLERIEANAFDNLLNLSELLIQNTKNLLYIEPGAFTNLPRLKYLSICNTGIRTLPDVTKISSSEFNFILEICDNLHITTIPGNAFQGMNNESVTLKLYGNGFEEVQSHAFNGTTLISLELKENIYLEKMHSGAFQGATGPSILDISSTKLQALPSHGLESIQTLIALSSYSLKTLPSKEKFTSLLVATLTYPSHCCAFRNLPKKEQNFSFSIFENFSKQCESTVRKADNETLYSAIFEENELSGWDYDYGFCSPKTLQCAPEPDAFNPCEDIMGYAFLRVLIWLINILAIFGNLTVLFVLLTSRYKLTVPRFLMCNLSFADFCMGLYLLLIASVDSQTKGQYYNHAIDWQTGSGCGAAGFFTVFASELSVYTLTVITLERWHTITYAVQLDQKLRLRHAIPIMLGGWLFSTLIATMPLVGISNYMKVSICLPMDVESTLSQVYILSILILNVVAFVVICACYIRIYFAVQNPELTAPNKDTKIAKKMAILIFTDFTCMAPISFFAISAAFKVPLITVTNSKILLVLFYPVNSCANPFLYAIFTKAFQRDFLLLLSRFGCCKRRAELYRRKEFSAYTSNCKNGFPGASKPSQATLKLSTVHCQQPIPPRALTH

| Binder | Receptor-Binding potency (percent hCG) [1] | Signal Transduction potency (cAMP accumulation) [2] | Signal transduction potency (cAMP accumulation), acid-stable analog [2] | Receptor-Binding potency (percent hCG) [3] |
| --- | --- | --- | --- | --- |
| hCG-αK44A (ligand, mature; heterodimer from COS-7 medium; also called αK44A+hCGβ) chain 1: not shown chain 2: SKEPLRPRCRPINATLAVEKEGCPVCITVNTTICAGYCPTMTRVLQGVLPALPQVVCNYRDVRFESIRLPGCPRGVNPVVSYAVALSCQCALCRRSTTDCGGPKDHPLTCDDPRFQDSSSSKAPPPSLPSPSRLPGPSDTPILPQ | 84 % of hCG | – | – | – |
| hCG-αK44E, K45Q (ligand, Glycosylated heterodimer secreted by COS-7 cells; no engineered intersubunit disulfide., heterodimer from COS-7 medium; also called αK44E, K45Q+hCGβ) alpha: not shown beta: SKEPLRPRCRPINATLAVEKEGCPVCITVNTTICAGYCPTMTRVLQGVLPALPQVVCNYRDVRFESIRLPGCPRGVNPVVSYAVALSCQCALCRRSTTDCGGPKDHPLTCDDPRFQDSSSSKAPPPSLPSPSRLPGPSDTPILPQ | 58 % of hCG | 42 % of hCG | – | – |
| hCG-αK91M (ligand, mature; heterodimer from COS-7 medium; also called αK91M+hCGβ) chain 1: not shown chain 2: SKEPLRPRCRPINATLAVEKEGCPVCITVNTTICAGYCPTMTRVLQGVLPALPQVVCNYRDVRFESIRLPGCPRGVNPVVSYAVALSCQCALCRRSTTDCGGPKDHPLTCDDPRFQDSSSSKAPPPSLPSPSRLPGPSDTPILPQ | 68 % of hCG | 66 % of hCG | – | – |
| hCG-αM47A (ligand, mature; heterodimer from COS-7 medium) chain 1: not shown chain 2: SKEPLRPRCRPINATLAVEKEGCPVCITVNTTICAGYCPTMTRVLQGVLPALPQVVCNYRDVRFESIRLPGCPRGVNPVVSYAVALSCQCALCRRSTTDCGGPKDHPLTCDDPRFQDSSSSKAPPPSLPSPSRLPGPSDTPILPQ | 83 % of hCG | – | – | – |
| αH90C + hCGβ-S138C (ligand, mature; disulfide αCys90-βCys138) chain 1: not shown chain 2: SKEPLRPRCRPINATLAVEKEGCPVCITVNTTICAGYCPTMTRVLQGVLPALPQVVCNYRDVRFESIRLPGCPRGVNPVVSYAVALSCQCALCRRSTTDCGGPKDHPLTCDDPRFQDSSSSKAPPPSLPSPSRLPGPCDTPILPQ | – | – | 1 % of hCG | 3.1 % of hCG |
| αH90C + β (ligand, mature; heterodimer from COS-7 medium; also called hCG-αH90C) chain 1: not shown chain 2: SKEPLRPRCRPINATLAVEKEGCPVCITVNTTICAGYCPTMTRVLQGVLPALPQVVCNYRDVRFESIRLPGCPRGVNPVVSYAVALSCQCALCRRSTTDCGGPKDHPLTCDDPRFQDSSSSKAPPPSLPSPSRLPGPSDTPILPQ | 30 % of hCG | 65 % of hCG | – | – |
| αK44C + hCGβ-S138C (ligand, mature; disulfide αCys44-βCys138) chain 1: not shown chain 2: SKEPLRPRCRPINATLAVEKEGCPVCITVNTTICAGYCPTMTRVLQGVLPALPQVVCNYRDVRFESIRLPGCPRGVNPVVSYAVALSCQCALCRRSTTDCGGPKDHPLTCDDPRFQDSSSSKAPPPSLPSPSRLPGPCDTPILPQ | – | – | 191 % of hCG | 250 % of hCG |
| αK44C + β (ligand, mature; heterodimer from COS-7 medium; also called hCG-αK44C) chain 1: not shown chain 2: SKEPLRPRCRPINATLAVEKEGCPVCITVNTTICAGYCPTMTRVLQGVLPALPQVVCNYRDVRFESIRLPGCPRGVNPVVSYAVALSCQCALCRRSTTDCGGPKDHPLTCDDPRFQDSSSSKAPPPSLPSPSRLPGPSDTPILPQ | 66 % of hCG | 97 % of hCG | – | – |
| αK45C + hCGβ-S138C (ligand, mature; disulfide αCys45-βCys138) chain 1: not shown chain 2: SKEPLRPRCRPINATLAVEKEGCPVCITVNTTICAGYCPTMTRVLQGVLPALPQVVCNYRDVRFESIRLPGCPRGVNPVVSYAVALSCQCALCRRSTTDCGGPKDHPLTCDDPRFQDSSSSKAPPPSLPSPSRLPGPCDTPILPQ | – | – | 168 % of hCG | 223 % of hCG |
| αK45C + β (ligand, mature; heterodimer from COS-7 medium; also called hCG-αK45C) chain 1: not shown chain 2: SKEPLRPRCRPINATLAVEKEGCPVCITVNTTICAGYCPTMTRVLQGVLPALPQVVCNYRDVRFESIRLPGCPRGVNPVVSYAVALSCQCALCRRSTTDCGGPKDHPLTCDDPRFQDSSSSKAPPPSLPSPSRLPGPSDTPILPQ | 93 % of hCG | 91 % of hCG | – | – |
| αK91C + hCGβ-S138C (ligand, mature; disulfide αCys91-βCys138) chain 1: not shown chain 2: SKEPLRPRCRPINATLAVEKEGCPVCITVNTTICAGYCPTMTRVLQGVLPALPQVVCNYRDVRFESIRLPGCPRGVNPVVSYAVALSCQCALCRRSTTDCGGPKDHPLTCDDPRFQDSSSSKAPPPSLPSPSRLPGPCDTPILPQ | – | – | – | 2.2 % of hCG |
| αK91C + β (ligand, mature; heterodimer from COS-7 medium; also called hCG-αK91C) chain 1: not shown chain 2: SKEPLRPRCRPINATLAVEKEGCPVCITVNTTICAGYCPTMTRVLQGVLPALPQVVCNYRDVRFESIRLPGCPRGVNPVVSYAVALSCQCALCRRSTTDCGGPKDHPLTCDDPRFQDSSSSKAPPPSLPSPSRLPGPSDTPILPQ | 41 % of hCG | 56 % of hCG | – | – |
| αL48C + β (ligand, mature; heterodimer from COS-7 medium; also called hCG-αL48C) chain 1: not shown chain 2: SKEPLRPRCRPINATLAVEKEGCPVCITVNTTICAGYCPTMTRVLQGVLPALPQVVCNYRDVRFESIRLPGCPRGVNPVVSYAVALSCQCALCRRSTTDCGGPKDHPLTCDDPRFQDSSSSKAPPPSLPSPSRLPGPSDTPILPQ | 60 % of hCG | 147 % of hCG | – | – |
| αM47C + β (ligand, mature; heterodimer from COS-7 medium; also called hCG-αM47C) chain 1: not shown chain 2: SKEPLRPRCRPINATLAVEKEGCPVCITVNTTICAGYCPTMTRVLQGVLPALPQVVCNYRDVRFESIRLPGCPRGVNPVVSYAVALSCQCALCRRSTTDCGGPKDHPLTCDDPRFQDSSSSKAPPPSLPSPSRLPGPSDTPILPQ | 8.7 % of hCG | 23 % of hCG | – | – |
| αN52C + hCGβ-S138C (ligand, mature; disulfide αCys52-βCys138; lacks the αAsn52 oligosaccharide) chain 1: not shown chain 2: SKEPLRPRCRPINATLAVEKEGCPVCITVNTTICAGYCPTMTRVLQGVLPALPQVVCNYRDVRFESIRLPGCPRGVNPVVSYAVALSCQCALCRRSTTDCGGPKDHPLTCDDPRFQDSSSSKAPPPSLPSPSRLPGPCDTPILPQ | – | – | – | 61 % of hCG |
| αQ50C + hCGβ-S138C (ligand) chain 1: not shown chain 2: SKEPLRPRCRPINATLAVEKEGCPVCITVNTTICAGYCPTMTRVLQGVLPALPQVVCNYRDVRFESIRLPGCPRGVNPVVSYAVALSCQCALCRRSTTDCGGPKDHPLTCDDPRFQDSSSSKAPPPSLPSPSRLPGPCDTPILPQ | – | – | 308 % of hCG | – |
| αQ50C + β (ligand, mature; heterodimer from COS-7 medium; also called hCG-αQ50C) chain 1: not shown chain 2: SKEPLRPRCRPINATLAVEKEGCPVCITVNTTICAGYCPTMTRVLQGVLPALPQVVCNYRDVRFESIRLPGCPRGVNPVVSYAVALSCQCALCRRSTTDCGGPKDHPLTCDDPRFQDSSSSKAPPPSLPSPSRLPGPSDTPILPQ | 81 % of hCG | 216 % of hCG | – | – |
| αR42C + β (ligand, mature; heterodimer from COS-7 medium; also called hCG-αR42C) chain 1: not shown chain 2: SKEPLRPRCRPINATLAVEKEGCPVCITVNTTICAGYCPTMTRVLQGVLPALPQVVCNYRDVRFESIRLPGCPRGVNPVVSYAVALSCQCALCRRSTTDCGGPKDHPLTCDDPRFQDSSSSKAPPPSLPSPSRLPGPSDTPILPQ | 113 % of hCG | 103 % of hCG | – | – |
| αS43C + β (ligand, mature; heterodimer from COS-7 medium; also called hCG-αS43C) chain 1: not shown chain 2: SKEPLRPRCRPINATLAVEKEGCPVCITVNTTICAGYCPTMTRVLQGVLPALPQVVCNYRDVRFESIRLPGCPRGVNPVVSYAVALSCQCALCRRSTTDCGGPKDHPLTCDDPRFQDSSSSKAPPPSLPSPSRLPGPSDTPILPQ | 35 % of hCG | 74 % of hCG | – | – |
| αS64C/hCG-βS138C (ligand, mature; disulfide αCys64-βCys138; also called hCGβS138C+αS64C) chain 1: not shown chain 2: SKEPLRPRCRPINATLAVEKEGCPVCITVNTTICAGYCPTMTRVLQGVLPALPQVVCNYRDVRFESIRLPGCPRGVNPVVSYAVALSCQCALCRRSTTDCGGPKDHPLTCDDPRFQDSSSSKAPPPSLPSPSRLPGPCDTPILPQ | – | – | – | 89 % of hCG |
| αS92C + β (ligand, mature; heterodimer from COS-7 medium; also called hCG-αS92C) chain 1: not shown chain 2: SKEPLRPRCRPINATLAVEKEGCPVCITVNTTICAGYCPTMTRVLQGVLPALPQVVCNYRDVRFESIRLPGCPRGVNPVVSYAVALSCQCALCRRSTTDCGGPKDHPLTCDDPRFQDSSSSKAPPPSLPSPSRLPGPSDTPILPQ | 100 % of hCG | 38 % of hCG | – | – |
| αT46C + β (ligand, mature; heterodimer from COS-7 medium; also called hCG-αT46C) chain 1: not shown chain 2: SKEPLRPRCRPINATLAVEKEGCPVCITVNTTICAGYCPTMTRVLQGVLPALPQVVCNYRDVRFESIRLPGCPRGVNPVVSYAVALSCQCALCRRSTTDCGGPKDHPLTCDDPRFQDSSSSKAPPPSLPSPSRLPGPSDTPILPQ | 38 % of hCG | 56 % of hCG | – | – |
| αT86C + β (ligand, mature; heterodimer from COS-7 medium; also called hCG-αT86C) chain 1: not shown chain 2: SKEPLRPRCRPINATLAVEKEGCPVCITVNTTICAGYCPTMTRVLQGVLPALPQVVCNYRDVRFESIRLPGCPRGVNPVVSYAVALSCQCALCRRSTTDCGGPKDHPLTCDDPRFQDSSSSKAPPPSLPSPSRLPGPSDTPILPQ | 95 % of hCG | 444 % of hCG | – | – |
| αV49C + β (ligand, mature; heterodimer from COS-7 medium; also called hCG-αV49C) chain 1: not shown chain 2: SKEPLRPRCRPINATLAVEKEGCPVCITVNTTICAGYCPTMTRVLQGVLPALPQVVCNYRDVRFESIRLPGCPRGVNPVVSYAVALSCQCALCRRSTTDCGGPKDHPLTCDDPRFQDSSSSKAPPPSLPSPSRLPGPSDTPILPQ | 70 % of hCG | 133 % of hCG | – | – |
| αV53C + β (ligand, mature; heterodimer from COS-7 medium; also called hCG-αV53C) chain 1: not shown chain 2: SKEPLRPRCRPINATLAVEKEGCPVCITVNTTICAGYCPTMTRVLQGVLPALPQVVCNYRDVRFESIRLPGCPRGVNPVVSYAVALSCQCALCRRSTTDCGGPKDHPLTCDDPRFQDSSSSKAPPPSLPSPSRLPGPSDTPILPQ | 149 % of hCG | – | – | – |
| αY88C + β (ligand, mature; heterodimer from COS-7 medium; also called hCG-αY88C) chain 1: not shown chain 2: SKEPLRPRCRPINATLAVEKEGCPVCITVNTTICAGYCPTMTRVLQGVLPALPQVVCNYRDVRFESIRLPGCPRGVNPVVSYAVALSCQCALCRRSTTDCGGPKDHPLTCDDPRFQDSSSSKAPPPSLPSPSRLPGPSDTPILPQ | 141 % of hCG | 74 % of hCG | – | – |
